Measurements taken from publication PMC7125159, “Pyrazinamide triggers degradation of its target aspartate decarboxylase” (Nature Communications, 2020).

Molecular target: the molecule itself
Test: dynamic light scattering; drug-free; 1 mg/mL PanD in 50 mM Tris pH 7.5, 200 mM NaCl, 298 K; octamer

B1: Wild-type Mtb Aspartate decarboxylase PanD (PanDWT), cleaved active form (enzyme)
chain 1: MLRTMLKSKIHRATVTCADLHYVG
chain 2: SVTIDADLMDAADLLEGEQVTIVDIDNGARLVTYAITGERGSGVIGINGAAAHLVHPGDLVILIAYATMDDARARTYQPRIVFVDAYNKPIDMGHDPAFVPENAGELLDPRLGVG
notes: not shown: His6, N-terminal, kept; copies: 8 + 8
stoichiometry N: 8
